Key:
Assay in all cases: ProtoArray, G9a array SNR minus GST array SNR
[1] = biological target: CTXN1, G9a-methylated (human) (UniProt P60606)
[2] = biological target: GPX1, G9a-methylated (human) (UniProt P07203)
[3] = biological target: LRRC20, G9a-methylated (human) (UniProt Q8TCA0)
[4] = biological target: KCTD7, G9a-methylated (human) (UniProt Q96MP8)
[5] = biological target: KRR1, G9a-methylated (human) (UniProt Q13601)
[6] = biological target: CCL24, G9a-methylated (human) (UniProt O00175)
[7] = biological target: CALN1, G9a-methylated (human) (UniProt Q9BXU9)
[8] = biological target: RPL14, G9a-methylated (human) (UniProt P50914)
[9] = biological target: CDC2, G9a-methylated (human) (UniProt P06493)
[10] = biological target: RTN1, G9a-methylated (human) (UniProt Q16799)
[11] = biological target: RAB7B, G9a-methylated (human) (UniProt Q96AH8)
[12] = biological target: LPAL2, G9a-methylated (human) (UniProt Q16609)
[13] = biological target: C12orf60, G9a-methylated (human) (UniProt Q5U649)
[14] = biological target: BHMT, G9a-methylated (human) (UniProt Q93088)
[15] = biological target: ZBP1, G9a-methylated (human) (UniProt Q9H171)
[16] = biological target: TTC27, G9a-methylated (human) (UniProt Q6P3X3)
[17] = biological target: PSMA8, G9a-methylated (human) (UniProt Q8TAA3)
[18] = biological target: Magmas, G9a-methylated (human) (UniProt Q9Y3D7)
[19] = biological target: UBE2D2, G9a-methylated (human) (UniProt P62837)
[20] = biological target: C1QTNF6, G9a-methylated (human) (UniProt Q9BXI9)
[21] = biological target: LYRM7, G9a-methylated (human) (UniProt Q5U5X0)
[22] = biological target: SNFT, G9a-methylated (human) (UniProt Q9NR55)
[23] = biological target: MGC10433 (RNA-binding protein 42), G9a-methylated (human) (UniProt Q9BTD8)
[24] = biological target: LTC4S, G9a-methylated (human) (UniProt Q16873)
[25] = biological target: SSR4, G9a-methylated (human) (UniProt P51571)
[26] = biological target: GYPC, G9a-methylated (human) (UniProt P04921)
[27] = biological target: GNPTAB, G9a-methylated (human) (UniProt Q3T906)
[28] = biological target: FKBP14, G9a-methylated (human) (UniProt Q9NWM8)
[29] = biological target: HS3ST1, G9a-methylated (human) (UniProt O14792)
[30] = biological target: RDH11, G9a-methylated (human) (UniProt Q8TC12)
[31] = biological target: DYNC2LI1, G9a-methylated (human) (UniProt Q8TCX1)
[32] = biological target: CDK5RAP3, G9a-methylated (human) (UniProt Q96JB5)
[33] = biological target: DIRAS1, G9a-methylated (human) (UniProt O95057)
[34] = biological target: MAGEH1, G9a-methylated (human) (UniProt Q9H213)
[35] = biological target: RAB33B, G9a-methylated (human) (UniProt Q9H082)
[36] = biological target: RHBDD1, G9a-methylated (human) (UniProt Q8TEB9)
[37] = biological target: C12orf62, G9a-methylated (human) (UniProt Q96I36)
[38] = biological target: MOBKL3, G9a-methylated (human) (UniProt Q9Y3A3)
[39] = biological target: WDR45, G9a-methylated (human) (UniProt Q9Y484)
[40] = biological target: PAEP, G9a-methylated (human) (UniProt P09466)
Chain of PAEP, G9a-methylated (human) (P09466 19-180 limits assumed): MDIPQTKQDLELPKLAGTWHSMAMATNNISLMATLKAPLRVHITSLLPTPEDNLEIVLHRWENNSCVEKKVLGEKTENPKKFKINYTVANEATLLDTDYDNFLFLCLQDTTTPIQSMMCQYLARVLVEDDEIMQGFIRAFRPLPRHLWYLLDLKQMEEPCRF

Chain of GPX1, G9a-methylated (human) (P07203 whole entry): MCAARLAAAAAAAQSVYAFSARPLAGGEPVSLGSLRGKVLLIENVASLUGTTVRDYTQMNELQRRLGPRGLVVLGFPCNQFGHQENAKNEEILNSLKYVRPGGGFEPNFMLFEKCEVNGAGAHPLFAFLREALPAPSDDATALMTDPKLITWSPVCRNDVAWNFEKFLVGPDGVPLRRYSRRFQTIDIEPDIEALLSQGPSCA
Chain of BHMT, G9a-methylated (human) (Q93088 whole entry): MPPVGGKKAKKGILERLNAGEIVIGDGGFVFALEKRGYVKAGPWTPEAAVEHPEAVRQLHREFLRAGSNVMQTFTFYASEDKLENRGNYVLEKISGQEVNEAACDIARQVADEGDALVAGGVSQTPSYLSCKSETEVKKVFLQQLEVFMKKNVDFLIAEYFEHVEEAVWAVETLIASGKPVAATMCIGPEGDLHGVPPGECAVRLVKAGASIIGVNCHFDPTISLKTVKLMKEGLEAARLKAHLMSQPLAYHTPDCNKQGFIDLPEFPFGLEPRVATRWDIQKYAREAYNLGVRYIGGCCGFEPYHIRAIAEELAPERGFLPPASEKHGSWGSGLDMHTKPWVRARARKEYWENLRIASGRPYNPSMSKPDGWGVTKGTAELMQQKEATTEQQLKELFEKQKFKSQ
Chain of RAB33B, G9a-methylated (human) (Q9H082 whole entry): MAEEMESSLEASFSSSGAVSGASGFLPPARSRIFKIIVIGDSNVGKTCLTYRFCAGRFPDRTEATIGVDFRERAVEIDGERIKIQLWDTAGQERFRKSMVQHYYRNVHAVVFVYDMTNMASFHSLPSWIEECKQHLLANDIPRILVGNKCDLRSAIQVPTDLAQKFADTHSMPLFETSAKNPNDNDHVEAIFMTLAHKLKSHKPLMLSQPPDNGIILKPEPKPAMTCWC
Chain of KCTD7, G9a-methylated (human) (Q96MP8 whole entry): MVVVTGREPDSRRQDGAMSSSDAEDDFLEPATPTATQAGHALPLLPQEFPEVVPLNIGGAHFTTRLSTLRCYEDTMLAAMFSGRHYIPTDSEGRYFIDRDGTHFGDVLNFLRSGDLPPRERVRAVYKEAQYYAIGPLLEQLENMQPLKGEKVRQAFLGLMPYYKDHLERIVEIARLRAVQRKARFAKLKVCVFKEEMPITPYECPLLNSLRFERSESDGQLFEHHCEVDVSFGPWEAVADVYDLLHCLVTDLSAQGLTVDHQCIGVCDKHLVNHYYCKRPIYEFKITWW
Chain of DIRAS1, G9a-methylated (human) (O95057 whole entry): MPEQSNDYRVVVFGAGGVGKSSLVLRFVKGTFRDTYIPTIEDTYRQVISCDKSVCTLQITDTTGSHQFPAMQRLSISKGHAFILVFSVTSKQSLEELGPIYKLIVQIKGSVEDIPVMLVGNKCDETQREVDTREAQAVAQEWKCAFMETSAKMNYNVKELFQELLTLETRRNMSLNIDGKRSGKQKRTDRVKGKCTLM
Chain of FKBP14, G9a-methylated (human) (Q9NWM8 20-211 limits assumed): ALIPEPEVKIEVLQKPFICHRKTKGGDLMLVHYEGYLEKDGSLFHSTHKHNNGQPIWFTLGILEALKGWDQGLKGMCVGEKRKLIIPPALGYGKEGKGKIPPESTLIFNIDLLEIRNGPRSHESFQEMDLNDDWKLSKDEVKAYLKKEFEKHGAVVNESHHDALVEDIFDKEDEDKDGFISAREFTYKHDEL
Chain of PSMA8, G9a-methylated (human) (Q8TAA3 whole entry): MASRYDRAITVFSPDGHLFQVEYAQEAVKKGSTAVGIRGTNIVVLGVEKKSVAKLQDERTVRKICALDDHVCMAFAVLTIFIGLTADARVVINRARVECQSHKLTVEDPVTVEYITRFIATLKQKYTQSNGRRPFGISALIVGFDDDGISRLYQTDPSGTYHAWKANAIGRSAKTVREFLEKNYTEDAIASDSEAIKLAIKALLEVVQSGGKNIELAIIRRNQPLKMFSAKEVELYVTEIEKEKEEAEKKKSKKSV
Chain of HS3ST1, G9a-methylated (human) (O14792 21-307 limits assumed): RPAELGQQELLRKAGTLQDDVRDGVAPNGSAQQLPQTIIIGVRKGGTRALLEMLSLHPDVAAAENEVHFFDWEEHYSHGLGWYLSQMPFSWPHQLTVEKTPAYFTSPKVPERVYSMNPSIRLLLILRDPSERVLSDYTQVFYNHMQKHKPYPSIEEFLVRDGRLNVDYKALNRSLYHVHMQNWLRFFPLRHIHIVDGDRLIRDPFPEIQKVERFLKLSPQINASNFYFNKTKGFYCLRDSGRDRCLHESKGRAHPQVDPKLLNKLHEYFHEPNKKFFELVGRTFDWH
Chain of CCL24, G9a-methylated (human) (O00175 27-119 limits assumed): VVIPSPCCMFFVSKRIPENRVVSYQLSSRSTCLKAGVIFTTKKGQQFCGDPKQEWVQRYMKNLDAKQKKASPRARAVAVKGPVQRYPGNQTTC
Chain of CTXN1, G9a-methylated (human) (P60606 whole entry): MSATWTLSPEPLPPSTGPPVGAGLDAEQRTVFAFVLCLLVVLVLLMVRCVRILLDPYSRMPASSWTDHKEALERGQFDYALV
Chain of WDR45, G9a-methylated (human) (Q9Y484 other isoform, or with tags, fused parts or gaps limits assumed): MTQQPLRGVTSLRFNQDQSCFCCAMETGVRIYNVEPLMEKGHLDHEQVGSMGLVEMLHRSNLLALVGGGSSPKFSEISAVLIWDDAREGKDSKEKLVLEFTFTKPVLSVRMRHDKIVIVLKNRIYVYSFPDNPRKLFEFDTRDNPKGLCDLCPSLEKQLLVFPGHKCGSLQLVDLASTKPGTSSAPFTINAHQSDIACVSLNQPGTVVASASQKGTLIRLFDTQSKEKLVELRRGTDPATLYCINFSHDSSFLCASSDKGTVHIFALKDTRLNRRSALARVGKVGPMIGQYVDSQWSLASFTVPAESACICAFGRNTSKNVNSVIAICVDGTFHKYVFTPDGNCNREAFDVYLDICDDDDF
Chain of MOBKL3, G9a-methylated (human) (Q9Y3A3 whole entry): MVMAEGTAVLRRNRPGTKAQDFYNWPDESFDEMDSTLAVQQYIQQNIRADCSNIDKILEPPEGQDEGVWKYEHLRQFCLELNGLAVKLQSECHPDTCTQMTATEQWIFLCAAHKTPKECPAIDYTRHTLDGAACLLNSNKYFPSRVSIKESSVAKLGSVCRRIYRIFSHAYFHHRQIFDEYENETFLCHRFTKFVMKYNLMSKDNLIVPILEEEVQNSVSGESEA
Chain of MGC10433 (RNA-binding protein 42), G9a-methylated (human) (Q9BTD8 whole entry): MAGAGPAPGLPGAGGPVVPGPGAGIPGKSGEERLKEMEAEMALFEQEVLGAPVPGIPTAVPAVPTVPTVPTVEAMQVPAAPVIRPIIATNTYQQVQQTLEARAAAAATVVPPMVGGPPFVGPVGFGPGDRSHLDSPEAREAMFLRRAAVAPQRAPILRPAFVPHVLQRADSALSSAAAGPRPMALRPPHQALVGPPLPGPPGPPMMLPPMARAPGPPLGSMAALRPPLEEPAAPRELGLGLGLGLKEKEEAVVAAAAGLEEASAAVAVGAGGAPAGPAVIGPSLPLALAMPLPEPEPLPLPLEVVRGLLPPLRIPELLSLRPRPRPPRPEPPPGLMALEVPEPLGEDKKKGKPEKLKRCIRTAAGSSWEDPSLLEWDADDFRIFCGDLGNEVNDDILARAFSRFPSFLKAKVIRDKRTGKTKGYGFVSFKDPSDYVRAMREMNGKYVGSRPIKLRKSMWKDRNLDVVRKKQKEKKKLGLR
Chain of LTC4S, G9a-methylated (human) (Q16873 whole entry): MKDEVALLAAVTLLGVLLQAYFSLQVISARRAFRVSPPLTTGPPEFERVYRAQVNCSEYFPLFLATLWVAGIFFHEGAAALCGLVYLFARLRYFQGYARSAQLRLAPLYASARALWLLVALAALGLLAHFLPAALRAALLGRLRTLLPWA
Chain of RHBDD1, G9a-methylated (human) (Q8TEB9 whole entry): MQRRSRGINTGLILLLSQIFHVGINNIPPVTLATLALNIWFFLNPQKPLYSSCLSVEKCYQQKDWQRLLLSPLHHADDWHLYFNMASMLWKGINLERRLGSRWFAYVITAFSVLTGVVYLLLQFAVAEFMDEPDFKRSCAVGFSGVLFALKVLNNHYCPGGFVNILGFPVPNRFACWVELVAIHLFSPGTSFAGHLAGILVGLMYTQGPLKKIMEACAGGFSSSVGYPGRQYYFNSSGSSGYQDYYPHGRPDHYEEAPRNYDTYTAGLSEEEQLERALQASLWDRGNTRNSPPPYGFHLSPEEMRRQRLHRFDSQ
Chain of LRRC20, G9a-methylated (human) (Q8TCA0 whole entry): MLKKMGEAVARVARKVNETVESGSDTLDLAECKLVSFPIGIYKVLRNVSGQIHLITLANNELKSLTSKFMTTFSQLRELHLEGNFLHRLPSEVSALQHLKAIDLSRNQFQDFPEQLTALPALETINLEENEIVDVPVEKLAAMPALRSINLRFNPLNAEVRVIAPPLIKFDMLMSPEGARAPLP
Chain of LPAL2, G9a-methylated (human) (Q16609 22-132 limits assumed): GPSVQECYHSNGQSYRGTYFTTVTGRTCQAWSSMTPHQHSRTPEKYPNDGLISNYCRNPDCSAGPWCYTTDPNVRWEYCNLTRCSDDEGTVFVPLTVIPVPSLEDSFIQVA
Chain of C12orf60, G9a-methylated (human) (Q5U649 whole entry): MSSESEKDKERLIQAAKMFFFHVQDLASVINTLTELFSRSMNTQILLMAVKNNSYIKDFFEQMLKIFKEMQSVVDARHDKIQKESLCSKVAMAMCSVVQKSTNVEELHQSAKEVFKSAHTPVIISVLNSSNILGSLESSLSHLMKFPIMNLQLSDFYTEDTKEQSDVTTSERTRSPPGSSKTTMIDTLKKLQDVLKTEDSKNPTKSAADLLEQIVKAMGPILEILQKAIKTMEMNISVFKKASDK
Chain of C1QTNF6, G9a-methylated (human) (Q9BXI9 47-278 limits assumed): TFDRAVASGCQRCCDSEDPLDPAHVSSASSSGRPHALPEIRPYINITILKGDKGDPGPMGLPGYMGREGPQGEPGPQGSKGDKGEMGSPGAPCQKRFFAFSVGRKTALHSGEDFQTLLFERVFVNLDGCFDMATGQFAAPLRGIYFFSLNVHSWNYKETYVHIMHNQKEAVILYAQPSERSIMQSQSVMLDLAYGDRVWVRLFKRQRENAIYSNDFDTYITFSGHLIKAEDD

Substance: 3× Flag-3×MBT (designed binder)
- G9a-GST [1]: 18.7
- G9a-GST [2]: 14.5
- G9a-GST [3]: 30.9
- G9a-GST [4]: 13.7
- G9a-GST [5]: 29.3
- G9a-GST [6]: 34.4
- G9a-GST [7]: 18.6
- G9a-GST [8]: 17.7
- G9a-GST [9]: 26
- G9a-GST [10]: 13.8
- G9a-GST [11]: 13
- G9a-GST [12]: 33
- G9a-GST [13]: 12.5
- G9a-GST [14]: 15.2
- G9a-GST [15]: 14
- G9a-GST [16]: 20.2
- G9a-GST [17]: 13.9
- G9a-GST [18]: 15.1
- G9a-GST [19]: 37.6
- G9a-GST [20]: 16.8
- G9a-GST [21]: 16.9
- G9a-GST [22]: 17.1
- G9a-GST [23]: 14.5
- G9a-GST [24]: 12.9
- G9a-GST [25]: 13
- G9a-GST [26]: 13.3
- G9a-GST [27]: 15.3
- G9a-GST [28]: 13.7
- G9a-GST [29]: 13.2
- G9a-GST [30]: 26.5
- G9a-GST [31]: 12.4
- G9a-GST [32]: 14.1
- G9a-GST [33]: 28.2
- G9a-GST [34]: 42.9
- G9a-GST [35]: 20.2
- G9a-GST [36]: 12.4
- G9a-GST [37]: 14.3
- G9a-GST [38]: 14
- G9a-GST [39]: 15.2
- G9a-GST [40]: 16.5

Reference: patent publication US20140274782A1, “AFFINITY REAGENTS AND METHODS FOR DETECTION, PURIFICATION, AND PROTEOMIC ANALYSIS OF METHYLATED PROTEINS” (The Board of Trustees of the Leland Stanford Junior …, priority 2013, published 2014)
